Data set [1] addresses T1, Hfq (Escherichia coli, UniProt P0A6X3 1-102). The data set is described as follows: EMSA. A general note: Mobility shift assays separate free from complexed probe on a gel.
Data set [2] concerns the target T1, Hfq. The experiment in a line: EMSA. The source holds these as a separate data set.

Numbering of substitutions follows the chain as printed.

T1 sequence (P0A6X3 whole entry): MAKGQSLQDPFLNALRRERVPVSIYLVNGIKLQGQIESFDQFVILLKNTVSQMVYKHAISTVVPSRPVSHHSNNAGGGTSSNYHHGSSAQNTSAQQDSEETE

B1: mutS leader ARN3* (structured_RNA)
RNA: GGUGCGCCUUAUGUGAUUACAACGAAAAUAAAAACCAUCACACCCCAUUUAAUAUCAGGGAACCGGACAUAACCCCAUGAGUGCCAUCGAGAAUUUCGACGCCCAU
One may read the Kd as the concentration at which binding is half-saturated. Low values mean a tighter complex, high ones a looser complex. As to B1, the Kd in the data set with Hfq [1] is around 19 nM.

B2: mutS leader ARN1* (structured_RNA)
RNA: B1 RNA with A27C, A28G, A31U, A33U, C85A, C88A, G91A
B2: in the data set with Hfq [2], the binding signal was ~3 fold lower affinity than WT.

(Values after article PMC5580658.)
